Measurements taken from paper PMC7350215, “Features of the Human Antibody Response against the Respiratory Syncytial Virus Surface Glycoprotein G” (Vaccines, 2020).

Target: the molecule itself
Experiment: non-reducing SDS-PAGE with immunoblot; purified A2-G separated under non-reducing or reducing conditions, blot stained with anti-His antibodies

B1: Recombinant RSV A2-derived G protein (extracellular domain of the attachment glycoprotein G, amino acids 66 to 298) (domain or fragment)
chain: NHKVTPTTAIIQDATSQIKNTTPTYLTQNPQLGISPSNPSEITSQITTILASTTPGVKSTLQSTTVKTKNTTTTQTQPSKPTTKQRQNKPPSKPNNDFHFEVFNFVPCSICSNNPTCWAICKRIPNKKPGKKTTTKPTKKPTLKTTKKDPKPQTTKSKEVPTTKPTEEPTINTTKTNIITTLLTSNTTGNPELTSQMETFHSTSSEGNPSPSQVSTTSEYPSQPSSPPNTPRQ
notes: Attachment glycoprotein G of respiratory syncytial virus strain A2, UniProtKB/Swiss-Prot P03423.1, extracellular domain, amino acids 66 to 298 (N66 to Q298); also called A2-G; recombinant His-tagged A2-G; not shown: His6, C-terminal, kept
binding result: binds
